The record followed here is paper PMC3779078 (Molecular reproduction and development, 2009).

Common to all, as to test: PAGE under mildly denaturing conditions with Western blot
In general terms: In western blotting, separated proteins are transferred to a membrane and probed.

In data set [1] the target is Izumo domain of Izumo 3, recombinant (mouse).
Data set [2] deals with Izumo 1 N-terminal domain (N), recombinant (mouse).
Data set [3] concerns the molecule itself.

Turning to “Izumo domain of Izumo 3, recombinant (domain or fragment)”, the stoichiometry N (usually a count of units in the complex or per binding partner) in data set [1] came to 2.
Regarding “Izumo 1 N-terminal domain (N), recombinant (domain or fragment)”, the stoichiometry N in data set [2] amounted to 2.

B1: Izumo 1 entire extracellular domain (N-Ig), recombinant (domain or fragment, mouse, UniProt Q9D9J7 22-319, looked up)
chain: CIKCDQFVTDALKTFENTYLNDHLPHDIHKNVMRMVNHEVSSFGVVTSAEDSYLGAVDENTLEQATWSFLKDLKRITDSDLKGELFIKELLWMLRHQKDIFNNLARQFQKEVLCPNKCGVMSQTLIWCLKCEKQLHICRKSLDCGERHIEVHRSEDLVLDCLLSWHRASKGLTDYSFYRVWENSSETLIAKGKEPYLTKSMVGPEDAGNYRCVLDTINQGHATVIRYDVTVLPPKHSEENQPPNIITQEEHETPVHVTPQTPPGQEPESELYPELHPELYPELIPTVAQNPEKKMKTR
Take B1: the “stoichiometry N” value in data set [3] worked out at 2.
